Laboratory results: article PMC7463755, “C7-Prenylation of Tryptophan-Containing Cyclic Dipeptides by 7-Dimethylallyl Tryptophan Synthase Significantly Increases the Anticancer and Antimicrobial Activities” (Molecules, 2020)

How the values were obtained:
Experiment in all cases: HPLC product formation, Michaelis-Menten
Type in all cases: biochemical, Aspergillus fumigatus
[1] = substrate: O=C1N[C@@H](Cc2c[nH]c3ccccc23)C(=O)N[C@H]1Cc1c[nH]c2ccccc12; conditions: 2 mM DMAPP, 5 mM CaCl2, 37 °C, prenyl acceptor
Source text: (§1) HPLC product formation, Michaelis-Menten on 7-DMATS (7-dimethylallyl tryptophan synthase)

[2] = substrate: CC(C)=CCOP(=O)(O)OP(=O)(O)O; conditions: 1 mM 1a (cyclo-L-Trp-Gly), 5 mM CaCl2, 37 °C, prenyl donor
Source text: as §1

[3] = substrate: C[C@@H]1NC(=O)[C@H](Cc2c[nH]c3ccccc23)NC1=O; conditions: 2 mM DMAPP, 5 mM CaCl2, 37 °C, prenyl acceptor
Source text: as §1

[4] = substrate: [H][C@@]12CCCN1C(=O)[C@H](Cc1c[nH]c3ccccc13)NC2=O; conditions: 2 mM DMAPP, 5 mM CaCl2, 37 °C, prenyl acceptor
Source text: as §1

[5] = substrate: O=C1N[C@@H](Cc2c[nH]c3ccccc23)C(=O)N[C@H]1Cc1ccccc1; conditions: 2 mM DMAPP, 5 mM CaCl2, 37 °C, prenyl acceptor
Source text: as §1

[6] = substrate: O=C1CNC(=O)[C@H](Cc2c[nH]c3ccccc23)N1; conditions: 2 mM DMAPP, 5 mM CaCl2, 37 °C, prenyl acceptor
Source text: as §1

[7] = substrate: O=C1N[C@@H](Cc2c[nH]c3ccccc23)C(=O)N[C@H]1Cc1ccc(O)cc1; conditions: 2 mM DMAPP, 5 mM CaCl2, 37 °C, prenyl acceptor
Source text: as §1

[8] = substrate: CC(C)C[C@@H]1NC(=O)[C@H](Cc2c[nH]c3ccccc23)NC1=O; conditions: 2 mM DMAPP, 5 mM CaCl2, 37 °C, prenyl acceptor
Source text: as §1

B1: 7-DMATS (7-dimethylallyl tryptophan synthase) (Aspergillus fumigatus Af293) (protein)
chain: MSIGAEIDSLVPAPPGLNGTAAGYPAKTQKELSNGDFDAHDGLSLAQLTPYDVLTAALPLPAPASSTGFWWRETGPVMSKLLAKANYPLYTHYKYLMLYHTHILPLLGPRPPLENSTHPSPSNAPWRSFLTDDFTPLEPSWNVNGNSEAQSTIRLGIEPIGFEAGAAADPFNQAAVTQFMHSYEATEVGATLTLFEHFRNDMFVGPETYAALRAKIPEGEHTTQSFLAFDLDAGRVTTKAYFFPILMSLKTGQSTTKVVSDSILHLALKSEVWGVQTIAAMSVMEAWIGSYGGAAKTEMISVDCVNEADSRIKIYVRMPHTSLRKVKEAYCLGGRLTDENTKEGLKLLDELWRTVFGIDDEDAELPQNSHRTAGTIFNFELRPGKWFPEPKVYLPVRHYCESDMQIASRLQTFFGRLGWHNMEKDYCKHLEDLFPHHPLSSSTGTHTFLSFSYKKQKGVYMTMYYNLRVYST
notes: recombinant, overproduced in E. coli and purified as in Kremer et al; vector pQE60 named
Km [1]: 225.8 µM | Vmax [1]: 0.0459 µM/min | kcat [1]: 0.0413 s⁻¹ | kcat/Km [1]: 183 M⁻¹ s⁻¹ | Km [2]: 79.6 µM | Vmax [2]: 0.072 µM/min | kcat [2]: 0.0693 s⁻¹ | kcat/Km [2]: 871 M⁻¹ s⁻¹ | Km [3]: 867.8 µM | Vmax [3]: 0.0141 µM/min | kcat [3]: 0.0127 s⁻¹ | kcat/Km [3]: 14.6 M⁻¹ s⁻¹ | Km [4]: 880.1 µM | Vmax [4]: 0.0228 µM/min | kcat [4]: 0.0205 s⁻¹ | kcat/Km [4]: 23.3 M⁻¹ s⁻¹ | Km [5]: 102.9 µM | Vmax [5]: 0.0359 µM/min | kcat [5]: 0.0323 s⁻¹ | kcat/Km [5]: 314 M⁻¹ s⁻¹ | Km [6]: 169.7 µM | Vmax [6]: 0.145 µM/min | kcat [6]: 0.131 s⁻¹ | kcat/Km [6]: 770 M⁻¹ s⁻¹ | Km [7]: 562.4 µM | Vmax [7]: 0.0515 µM/min | kcat [7]: 0.0464 s⁻¹ | kcat/Km [7]: 82.4 M⁻¹ s⁻¹ | Km [8]: 823.2 µM | Vmax [8]: 0.0654 µM/min | kcat [8]: 0.0586 s⁻¹ | kcat/Km [8]: 71.2 M⁻¹ s⁻¹
